The text below walks through data of patent US20210355220A1 (TIKCRO TECHNOLOGIES, published 2021).

The target in assay [1] is T1, human CTLA-4 expressed on cells (human, UniProt P16410 36-223). The assay is described as follows: cell-based or functional assay.
In assay [2] the target is T1, human CTLA-4 expressed on cells. Kind of assay: flow cytometry on HEK293-hCTLA-4 cells. How it is done:
To test the binding of antibodies to CTLA-4 under more physiological conditions, the binding of CTLA-4 antibodies to cell-surface CTLA-4 was tested. […] The surface expression of hCTLA-4 in the obtained cell line was tested using a commercial anti-CTLA-4 antibody and compared to the parent cell line (HEK293 without transfection). […] The anti-CTLA-4 antibodies were incubated in serial dilution concentrations with the HEK293-hCTLA-4 cells for 1 hour on ice. Following a wash step, an anti-human antibody conjugated to ALEXA FLUOR® 647® was added for an additional hour. The cells were washed, and propidium iodide (PI) was added to exclude dead cells. The fluorescent signal was measured using FACS and analyzed. Dead cells were removed based on the PI signal. The population was gated based on forward and side scatter (FSC and SSC) parameters, and doublets were removed. The Median Fluorescent Intensity (MFI) of the appropriate channel was calculated for the live single cells from each group. The MFI was plotted versus antibody concentration in Prism software (V6.01) and kinetic parameters were obtained using a curve fit dose response function with four parameters. […] The lower EC₅₀ values indicate increased binding affinity to cell surface hCTLA-4.

For assay [3], the target named is T2, Recombinant human CTLA-4-his (Sino Biologicals, 11159-H08H) (human, UniProt P16410 36-162).
T2 construct: Bought protein; also called dimer hCTLA-4; not shown: his tag
The assay is described as follows: SPR (Biacore T100), reference ipilimumab. How it is done: Recombinant human CTLA-4-his (Sino Biologicals, 11159-H08H) was added in a serial 2-fold dilution, starting at a concentration of 500nM. […] The measurement was corrected using the baseline channel and the protein-antibody interaction was measured by the change in surface resonance and quantified with Biacore T100 control software (version 2.0.4).

The target in the next assay is T3, hBTLA on HEK293 cells (human, UniProt Q7Z6A9 31-289).
T3 construct: whole, on cells
Kind of assay: flow cytometry on transfected HEK293 cells. How it is done: (§1) HEK293 cells were transfected with expression vectors of the following immune-related proteins: hBTLA, hICOS, hCD28, hPDL1, hPD1, hPDL2, and hCTLA-4. Over-expression of the proteins was verified using commercial antibodies against each target. […] Antibody binding to cells was then detected using flow cytometry. Cells that were incubated only with the secondary antibody were used as a background control. […] Note that “+” indicates binding above the background level and “-” indicate no binding as compared to the background level.

In another assay the target is T4, hICOS on HEK293 cells (human, UniProt Q9Y6W8 21-199).
T4 construct: whole, on cells
T4 sequence (looked up): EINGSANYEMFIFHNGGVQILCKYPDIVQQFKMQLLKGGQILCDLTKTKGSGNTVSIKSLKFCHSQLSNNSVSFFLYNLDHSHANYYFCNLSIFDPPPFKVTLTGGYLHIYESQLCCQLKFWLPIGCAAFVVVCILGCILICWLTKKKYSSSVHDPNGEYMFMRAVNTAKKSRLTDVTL
Kind of assay: flow cytometry on transfected HEK293 cells. How it is done: as §1

The next assay concerns the target T5, hCD28 on HEK293 cells (human, UniProt P10747 19-220).
T5 construct: whole, on cells
The assay is described as follows: flow cytometry on transfected HEK293 cells. The procedure:
as §1

The target in a further assay is T6, hPDL1 on HEK293 cells (human, UniProt Q9NZQ7 19-290).
T6 construct: whole, on cells
The assay is described as follows: flow cytometry on transfected HEK293 cells. How it is done: as §1

The next assay addresses T7, hPDL2 on HEK293 cells (human, UniProt Q9BQ51 20-273).
T7 construct: whole, on cells
T7 sequence (looked up): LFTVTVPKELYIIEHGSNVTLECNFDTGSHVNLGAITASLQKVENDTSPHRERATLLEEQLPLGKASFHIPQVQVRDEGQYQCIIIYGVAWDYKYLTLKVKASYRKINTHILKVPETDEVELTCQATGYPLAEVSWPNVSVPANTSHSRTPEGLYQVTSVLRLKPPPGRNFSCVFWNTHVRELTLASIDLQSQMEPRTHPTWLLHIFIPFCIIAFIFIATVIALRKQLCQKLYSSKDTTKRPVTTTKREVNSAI
The assay is described as follows: flow cytometry on transfected HEK293 cells. The procedure:
as §1

In a further assay the target is T8, hPD1 on HEK293 cells (human, UniProt Q15116 25-288).
T8 construct: whole, on cells
Kind of assay: flow cytometry on transfected HEK293 cells. How it is done: as §1

Assay [4] has as its target T1, human CTLA-4 expressed on cells. Kind of assay: flow cytometry on transfected HEK293 cells. The procedure: as §1
The target is the same in assay [5]. Kind of assay: flow cytometry, inhibition of CD86-mFC binding to HEK293-hCTLA-4 cells, reference tremelimumab. How it is done: As part of their activity, CTLA-4 therapeutic antibodies block the interaction between CTLA-4 and its ligands, leaving the ligands free for CD28 binding. […] First, HEK293-hCTLA-4 cells were incubated with the tested antibodies in a serial dilution for 30 minutes. […] The fluorescence was measured and analyzed. The experiment was performed in triplicate and is representative of three biological repeats.

Assay [6] addresses T9, CTLA-4-his reduced with 100 mM DTT to its monomeric form (human, UniProt P16410 36-162).
T9 construct: Same bought protein as the dimer, reduced with DTT before coating; also called monomer hCTLA-4; not shown: his tag
The assay is described as follows: ELISA, plate coated with DTT-reduced CTLA-4-his (monomer), anti-human-HRP, OD450; the box beside the curves does not name the quantity, the value lies at the half-maximal point of the curve (OD450 0.2 to 1.4). How it is done: hCTLA-4 can exist in monomer and dimer forms on the cell surface. […] The recombinant protein was incubated for 10 minutes with 100 mM DTT to reduce the protein to its monomeric form. […] The plates were coated overnight at 4° C., followed by a wash step and blocking with 20% milk for 1 hour at 37° C. […] The plate was washed and a secondary anti-human-HRP antibody (Jackson) was added at a 1:5000 dilution. A TMB solution was added, followed by stop solution and the OD at 450 nm was measured. Data was analyzed with Prism software.

T1 sequence (P16410 36-223): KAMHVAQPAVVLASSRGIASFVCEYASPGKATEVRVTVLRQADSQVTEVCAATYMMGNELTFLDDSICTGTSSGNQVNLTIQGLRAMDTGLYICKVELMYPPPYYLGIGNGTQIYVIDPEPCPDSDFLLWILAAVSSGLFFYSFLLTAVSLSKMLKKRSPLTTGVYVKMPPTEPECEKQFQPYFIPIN
T2 sequence (P16410 36-162 limits assumed): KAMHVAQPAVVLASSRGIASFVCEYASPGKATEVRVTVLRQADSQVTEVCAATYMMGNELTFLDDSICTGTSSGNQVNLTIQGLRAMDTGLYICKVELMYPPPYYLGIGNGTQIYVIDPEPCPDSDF
T6 sequence (Q9NZQ7 19-290): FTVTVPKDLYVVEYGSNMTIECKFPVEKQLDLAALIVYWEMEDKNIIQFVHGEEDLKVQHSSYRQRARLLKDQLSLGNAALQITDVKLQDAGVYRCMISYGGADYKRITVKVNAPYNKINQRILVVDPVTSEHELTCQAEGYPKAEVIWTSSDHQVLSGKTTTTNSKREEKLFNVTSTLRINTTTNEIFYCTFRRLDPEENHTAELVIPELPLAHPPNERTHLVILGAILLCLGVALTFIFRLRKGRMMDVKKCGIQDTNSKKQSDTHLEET
T8 sequence (Q15116 25-288): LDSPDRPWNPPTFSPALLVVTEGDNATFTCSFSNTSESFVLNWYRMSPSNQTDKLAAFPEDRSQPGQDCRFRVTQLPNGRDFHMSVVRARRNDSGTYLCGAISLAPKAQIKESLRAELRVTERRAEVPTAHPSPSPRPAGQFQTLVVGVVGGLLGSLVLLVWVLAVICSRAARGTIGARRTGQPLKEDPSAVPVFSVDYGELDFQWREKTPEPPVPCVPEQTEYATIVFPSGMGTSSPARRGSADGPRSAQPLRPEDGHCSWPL
T9 sequence (P16410 36-162 limits assumed): as the sequence (P16410 36-162 limits assumed) above

B1: Ab55h (antibody, V domains shown)
VH: QVQLQESGPGLVKPSETLSLTCAVSGYSISGDYYWGWIRQPPGKGLEWIGSIYHSGYTYYNPSLKSRVTISVDTSKNQFSLKLSSVTAADTAVYYCARDSGWYVIAFDYWGQGTLVTVSS
VL: EIVMTQSPATLSVSPGERATLSCRASQSVSSNLAWYQEKPGQAPRLLIYGASTRATGIPARFSGSGSGTEFTLTISSLQSEDFAVYYCQQYNNWPPLTFGGGTKVEIK
notes: Human form, compared with an hIgG1 isotype control
For B1, the “SHP1 reporter IC50” value in [1] worked out at 0.059 nM. Also, in assay [1], the “SHP1 reporter IC50, Ratio Ab55h:Ipilimumab” value was 4.5 fold. For the same molecule, the EC50 in assay [2] came to 0.24 nM; in assay [6] it was 0.002 nM. Also, the “Ratio Ipilimumab:Ab55h of Kd” value in [3] was 8.1 fold. The “Ratio Ipilimumab:Ab55h of Koff” value in [3] was 1.3 fold. Also, the “Ratio Ipilimumab:Ab55h of Kon” value in assay [3] was 0.16 fold. The MFI with hBTLA on HEK293 cells is 68 MFI; in the assay with hICOS on HEK293 cells it was 67 MFI; with hCD28 on HEK293 cells, 66 MFI; in the assay with hPDL1 on HEK293 cells it was 69 MFI; in the assay with hPDL2 on HEK293 cells, 70 MFI; with hPD1 on HEK293 cells, 72 MFI. The molecule further came in with an MFI in assay [4] of 3290 MFI. Further, the binding result with hBTLA on HEK293 cells, with hICOS on HEK293 cells, with hCD28 on HEK293 cells, with hPDL1 on HEK293 cells, in the assay with hPDL2 on HEK293 cells and in the assay with hPD1 on HEK293 cells was “no binding” throughout. Besides, the “Ratio Tremelimumab:Ab55h of IC50” value in assay [5] came out at 2.8 fold.
